Source: paper PMC11672978, “Assessing the Impact of the Leader Peptide in Protease Inhibition by the Microviridin Family of RiPPs” (Biomedicines, 2024)
Values belong to the substance of their own block, whether it stands above or below them.

Legend:
Elastase [1] = molecular target: Elastase
elastase [2] = conditions: mature natural product without leader peptide; read-out: previously reported IC50 for elastase inhibition; cited from earlier work
From the text: Although, the IC50 value we measured is certainly an overestimation of the actual IC50 as it is less than half the concentration of the elastase used in the assay.

Elastase [3] = molecular target: Elastase; remark: listed apart in the source

IC50 of inhibition of the hydrolysis of the fluorogenic substrate MeOSuc-AAPV-AMC by elastase (20 nM elastase, 10 nM-10,000 nM MdnA Δ2, 100 mM HEPES pH 8.0, 10% DMSO, room temperature) (Elastase [1]): 840 nM
Substance: MdnA Δ2 (bicyclic microviridin B precursor peptide modified by MdnC only, leader peptide present, N-terminal His-tag)

Substance: microviridin B
IC50 (elastase [2]): 25 nM

IC50 of inhibition of the hydrolysis of the fluorogenic substrate MeOSuc-AAPV-AMC by elastase (20 nM elastase, 0.1 nM-100 nM MdnA Δ3, 100 mM HEPES pH 8.0, 10% DMSO, room temperature) (Elastase [3]): 8.3 nM
Substance: MdnA Δ3 (tricyclic, fully modified microviridin B precursor peptide with the leader peptide present, N-terminal His-tag)
